Data published in article PMC3413145.
Like-named read-outs stand apart in the source and are kept apart here.

B1: sinP3 promoter fragment (127 bp) (dsDNA)
DNA 1: TTTAAACAAAAAGTCTGCTCATCCTGGTCCGGCAGCCAGAAGTCATACCGTAAATCCTTTCTGAATGTGCTATAATATCACAAGGAAGGTGATGACATTGATTGGCCAGCGTATTAAACAATACCGT
DNA 2: ACGGTATTGTTTAATACGCTGGCCAATCAATGTCATCACCTTCCTTGTGATATTATAGCACATTCAGAAAGGATTTACGGTATGACTTCTGGCTGCCGGACCAGGATGAGCAGACTTTTTGTTTAAA
B2: rrnAP3 promoter fragment (150 bp) (dsDNA)
DNA 1: ATCGAACGGGTATGCTGTTAGGCGACGGTCACCTATGGATATCTATGGATGACCGAACCTGGTCTTGACTCCATTGCCGGATTTGTATTAGACTGGCAGGGTTGCCCCGAAGCGGGCGGAAACAAGCAAGCGTGTTGTTTGAGAACTCAA
DNA 2: TTGAGTTCTCAAACAACACGCTTGCTTGTTTCCGCCCGCTTCGGGGCAACCCTGCCAGTCTAATACAAATCCGGCAATGGAGTCAAGACCAGGTTCGGTCATCCATAGATATCCATAGGTGACCGTCGCCTAACAGCATACCCGTTCGAT

Tests used:
Assay in all cases: EMSA
[1] = molecular target: T1, RNAP core enzyme (alpha2 beta beta' omega);sigmaA;RbpA (Mycobacterium tuberculosis (H37Rv for …, UniProt P9WGZ1;P9WGY9;P9WGY7;P9WGY5;P9WGI1;P9WHJ5 1-347;1-1178;1-1316;1-110;1-528;1-111, ||))
[2] = molecular target: T1, RNAP core enzyme (alpha2 beta beta' …); remark: listed apart in the source
[3] = molecular target: E. coli RNAP core enzyme;sigmaA (Escherichia coli;Mycobacterium …, UniProt P0A7Z4;P0A8V2;P0A8T7;P0A800;P9WGI1 1-329;1-1342;1-1407;1-91;1-528, |)
[4] = molecular target: RNAP core enzyme (alpha2 beta beta' omega);sigmaA (Mycobacterium tuberculosis (H37Rv for …, UniProt P9WGZ1;P9WGY9;P9WGY7;P9WGY5;P9WGI1 1-347;1-1178;1-1316;1-110;1-528, |))

Binder | binding result [1] | binding result [2] | binding result [3] | binding result [4]
B1 | binds |  |  | 
B2 |  | binds | binds | binds
